# In patent publication US20030190687A1 (UAB RESEARCH FOUNDATION, published 2003):
# B1: anti-human DR5 monoclonal antibody TRA-8 (mouse-mouse hybridoma TRA-8, ATCC PTA-1428) (antibody, mouse IgG1, kappa, V domains shown)
# VH: EVMLVESGGGLVKPGGSLKLSCAASGFTFSSYVMSWVRQTPEKRLEWVATISSGGSYTYYPDSVKGRFTISRDNAKNTLYLQMSSLRSEDTAMYYCARRGDSMITTDYWGQGTTLTVSS
# VL: DIVMTQSHKFMSTSVGDRVSITCKASQDVGTAVAWYQQKPGQSPKLLIYWASTRHTGVPDRFTGSGSGTDFTLTISNVQSEDLADYFCQQYSSYRTFGGGTKLEIKR
# notes: also called monoclonal anti-DR5 antibody (clone: TRA-8); TRA-8 antibody
# Target: T1, human DR5 on the cell surface (Cos-7 cells transfected with full-length human DR5 cDNA); human cells that … (human, UniProt O14763 56-440)
# T1 construct: whole, on cells; also called cell surface DR5; full-length DR5
# Assay: radioisotope labeled TRA-8 on a breast cancer line in vitro; reference soluble TRAIL
binder,measurement,value
B1,fold higher binding activity than soluble TRAIL,50 fold
